{"source": "paper PMC6126569", "origin": "cited, not measured here", "biological_target": "Bac7 (Bos taurus) (UniProt P19661)", "sequence (P19661 131-189)": "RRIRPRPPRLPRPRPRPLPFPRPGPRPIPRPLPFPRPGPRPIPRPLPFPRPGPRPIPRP", "experiment": "SRCD", "note": "Values joined by “and” are separate entries in the source; they are usually repeats but may differ in a detail not shown here. Identical values can stand only once."}
{"substance": "SbmA (from UniProt P0AFY6)", "values": [{"measurement": "Kd", "result": "0.26 µM and 0.28 µM"}]}
